# In patent US20250163168A1, “NOVEL ANTIBODIES AND ANTIBODY CONJUGATES FOR THE TREATMENT OF METABOLIC DISORDERS” (PFIZER INC., priority 2023, published 2025):
# Key:
# mouse GIPR/GIP = target: T1, mouse GIPR/GIP (Mus musculus, UniProt Q0P543); test: Cross-species activity to mouse GIPR/GIP
# T1 sequence (Q0P543 19-460): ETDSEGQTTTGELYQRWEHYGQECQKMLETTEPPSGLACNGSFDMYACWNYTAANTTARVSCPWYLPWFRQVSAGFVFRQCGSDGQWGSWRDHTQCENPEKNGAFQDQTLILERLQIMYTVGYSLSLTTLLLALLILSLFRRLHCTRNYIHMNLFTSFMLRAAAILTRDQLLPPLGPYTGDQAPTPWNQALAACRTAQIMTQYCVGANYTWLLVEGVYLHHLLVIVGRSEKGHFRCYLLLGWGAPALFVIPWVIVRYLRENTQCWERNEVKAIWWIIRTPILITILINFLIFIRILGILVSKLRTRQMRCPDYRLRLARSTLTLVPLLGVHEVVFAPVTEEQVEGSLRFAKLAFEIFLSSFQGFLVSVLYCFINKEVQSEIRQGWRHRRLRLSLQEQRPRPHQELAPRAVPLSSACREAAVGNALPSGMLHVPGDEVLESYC
# Human GIPR ECD = target: T2, Human GIPR ECD (Homo sapiens, UniProt P48546); test: Kinetic evaluation of anti-GIPR antibody by surface plasmon resonance (SPR); set-up: made in house; settings: SPR at 37° C., captured antibody, 1:1 binding model
# T2 sequence (P48546 with tags, fused parts or gaps): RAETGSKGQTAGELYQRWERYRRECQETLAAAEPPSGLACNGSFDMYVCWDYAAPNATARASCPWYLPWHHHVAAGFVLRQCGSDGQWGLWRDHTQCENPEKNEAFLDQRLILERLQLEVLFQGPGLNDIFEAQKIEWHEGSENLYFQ
# Experimental: Human GIPR ECD (amino acid sequence of SEQ ID NO: 33) was prepared. An anti-human Fc sensor chip was prepared by amine coupling of anti-human IgG antibody (catalog number BR-1008-39, Cytiva) to all flow cells of a carboxymethylated dextran coated sensor chip (CM5) (catalog number BR100530, Cytiva) according to the manufacturer's protocols. The flow cells were activated by injecting a 1:1 mixture of 400 mM 1-Ethyl-3-(3-dimethylaminopropyl) carbodiimide hydrochloride (EDC) and 100 mM N-hydroxysuccinimide (NHS) for 7 minutes at a flow rate of 10 μL/minute. Anti-human IgG antibody was diluted to ˜12.5 μg/mL in 10 mM sodium acetate pH 5.0 and injected over all flow cells for 7 minutes at 10 μL/minute. All flow cells were blocked with 1M ethanolamine-HCl (ETH) for 7 minutes at 10 μL/minute. Final immobilization levels of the capture antibody were approximately 12,000 resonance units (RU). […]
# Flow cell 1 was used as a reference surface. […] Rate constants and affinities were determined by fitting the data to a 1:1 binding model in BIAcore™ Insight Evaluation software version 3.0.12 (GE Healthcare).
# After antibody capture, dilutions of the human GIPR ECD proteins were flowed over the sensor chip surface and the association rate constant (ka), dissociation rate constant (kd), and KD values were determined for binding to human GIPR ECD (Table 5).
# human GIPR (hGIPR) = target: T3, human GIPR (hGIPR) (Homo sapiens, UniProt P48546); test: Functional in vitro GIPR antagonist potency assay (human GIPR-CHO cAMP, HTRF); type: cell-based; settings: CHO-K1 cells stably expressing hGIPR, 1.5 nM hGIP
# T3 sequence (P48546 22-466): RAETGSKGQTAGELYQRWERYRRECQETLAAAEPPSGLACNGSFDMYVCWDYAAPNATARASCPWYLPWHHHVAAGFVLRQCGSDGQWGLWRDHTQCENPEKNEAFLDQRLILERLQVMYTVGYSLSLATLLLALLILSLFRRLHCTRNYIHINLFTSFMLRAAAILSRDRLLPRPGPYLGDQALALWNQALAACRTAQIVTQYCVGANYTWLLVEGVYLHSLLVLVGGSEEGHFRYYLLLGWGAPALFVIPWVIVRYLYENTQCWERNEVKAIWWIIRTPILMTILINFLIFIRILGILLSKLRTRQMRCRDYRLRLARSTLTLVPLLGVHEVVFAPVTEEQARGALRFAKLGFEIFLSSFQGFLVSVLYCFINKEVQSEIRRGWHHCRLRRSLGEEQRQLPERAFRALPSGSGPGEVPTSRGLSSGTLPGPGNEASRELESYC
# Excerpt: Following agonist activation, hGIPR associates with the G-protein complex causing the Gas subunit to exchange bound Guanosine diphosphate (GDP) for guanosine triphosphate (GTP), followed by dissociation of the Gas-GTP complex. The activated Gas subunit can couple to downstream effectors to regulate the levels of second messengers or cAMP within the cell. Thereby, determination of intracellular cAMP levels allows for pharmacological characterization. Intracellular cAMP levels were quantified using a homogenous assay utilizing the Homogeneous Time Resolved Fluorescence (HTRF) technology from Perkin Elmer. The method was a competitive immunoassay between native cAMP produced by the cells and cAMP labelled with the acceptor dye, d2. The two entities competed for binding to a monoclonal anti-cAMP antibody labeled with cryptate. […] G2269) in 1× cAMP assay buffer was added to the assay plate (5 μL/well) at 4.5 nM (final concentration of 1.5 nM) and incubated for another 30 minutes at 37° C., after which intracellular cAMP levels were quantified with Cisbio cAMP-GS Dynamic kit (#62AM4PEC) with dilution of 20× of D2 and Eu in lysis buffer, mixed 1:1 by volume, and added 15 ul/well into plate, with a quick spin. […] The plate was then read on an Envision plate reader. Data were analyzed using the ratio of fluorescence intensity at 620 and 665 nm for each well.
substance,measurement,setting,value
2G10: fully human monoclonal anti-GIPR antagonist antibody portion of AMG 133 (maridebart cafraglutide); benchmark antibody [reference compound],cross-reactivity to additional species such as mouse GIPR,mouse GIPR/GIP,not cross-reactive
same,Kd,Human GIPR ECD,19.2 nM
same,IC50,human GIPR (hGIPR),30.4 nM
